Laboratory results: publication PMC9943658

Experiments:
His-T7-hnRNP C1 ΔACIDIC = His-T7-hnRNP C1 ΔACIDIC (UniProt P07910); test: SEC
His-T7-hnRNP C1 ΔRRM = His-T7-hnRNP C1 ΔRRM (UniProt P07910); test: SEC

stoichiometry N (His-T7-hnRNP C1 ΔACIDIC)	stoichiometry N (His-T7-hnRNP C1 ΔRRM)	Substance
2		His-T7-hnRNP C1 ΔACIDIC (from UniProt P07910-2 1-293) (natural protein)
	4	His-T7-hnRNP C1 ΔRRM (from UniProt P07910-2 1-293) (natural protein)
